These results are taken from publication PMC7140604.

Experiment [1] deals with Ag85 (antigen 85 complex proteins) on the surface of live Mycobacterium abscessus cells (M. abscessus (endogenous in CIP104536T cells)). The experiment in a line: single-molecule force spectroscopy (AFM); Fn-functionalized gold-coated AFM tip on live M. abscessus R cells adhered to a hydrophobic Petri dish; PBS; maximum force 250 pN, contact time 500 ms, retraction 1 um/s.

For experiment [2] the target is unchanged. Nature of the experiment: single-cell force spectroscopy (AFM); single M. abscessus R cell on a polydopamine colloidal probe against Fn coupled to a gold surface; PBS; maximum force 250 pN, contact time 500 ms, approach and retraction 1 um/s.
The target is the same in experiment [3]. The experiment in a line: dynamic force spectroscopy (AFM single-molecule force spectroscopy at varied loading rate); Fn tip on live M. abscessus R cells; retraction speeds 0.5, 1, 2.5, 5 and 10 um/s; loading rates 100 to 100,000 pN/s; 13 cells; fit of the Friddle-Noy-de Yoreo model; Kd calculated from Feq and keff (7 pN/nm).

For “purified human plasma fibronectin (natural protein)”, in experiment [1], the adhesion (rupture) force was found to be 75 pN and the adhesion frequency (fraction of adhesive force curves), without peptide turned out to be 30%. In experiment [2], this substance had an adhesion force of 77 pN and an adhesion frequency (fraction of adhesive force curves), without peptide of 30%. Further, in experiment [3], the Kd (as a rule, a measure of binding affinity in units of concentration) is 95 nM; the equilibrium force (Feq) is 34 pN; the koff (as a rule, the first-order rate constant of dissociation) was 33 s⁻¹.
